Results on five proteins are retold here after PMC7670456.

A short description of data set [1]: immunoblot of endogenous SMAD4, A549. The note with it: control: mock / control siRNA / DMSO / 5 mM glucose.
Data set [2] is described as follows: anti-FLAG IP, anti-phospho-threonine blot, HEK293, EGF. As to conditions: glycan gained; control: no OGT overexpression.
Data set [3] in a line: CHX chase, immunoblot, A549. In general terms: Immunoblotting shows a protein as a band on a membrane.
Data set [4] in a line: denaturing anti-FLAG IP, HA-Ub blot, HEK293, MG132. As to conditions: glycan lost; control: FLAG-SMAD4 WT.

B1: SMAD4: OGT overexpression (protein)
parent chain: MDNMSITNTPTSNDACLSIVHSLMCHRQGGESETFAKRAIESLVKKLKEKKDELDSLITAITTNGAHPSKCVTIQRTLDGRLQVAGRKGFPHVIYARLWRWPDLHKNELKHVKYCQYAFDLKCDSVCVNPYHYERVVSPGIDLSGLTLQSNAPSSMMVKDEYVHDFEGQPSLSTEGHSIQTIQHPPSNRASTETYSTPALLAPSESNATSTANFPNIPVASTSQPASILGGSHSEGLLQIASGPQPGQQQNGFTGQPATYHHNSTTTWTGSRTAPYTPNLPHHQNGHLQHHPPMPPHPGHYWPVHNELAFQPPISNHPAPEYWCSIAYFEMDVQVGETFKVPSSCPIVTVDGYVDPSGGDRFCLGQLSNVHRTEAIERARLHIGKGVQLECKGEGDVWVRCLSDHAVFVQSYYLDREAGRAPGDAVHKIYPSAYIKVFDLRQCHRQMQQQAATAQAAAAAQAAAVAGNIPGPGSVGGIAPAISLSAAAGIGVDDLRRLCILRMSFVKGWGPDYPRQSIKETPCWIEIHLHRALQLLDEVLHTMPIADPQPLD
For B1, the expression_or_secretion entry in data set [1] (glycan gained) is on record as “increases”. In data set [2], the “other: threonine phosphorylation” value is recorded as “decreases”.

B2: SMAD4: thiamet-G (protein)
parent chain: MDNMSITNTPTSNDACLSIVHSLMCHRQGGESETFAKRAIESLVKKLKEKKDELDSLITAITTNGAHPSKCVTIQRTLDGRLQVAGRKGFPHVIYARLWRWPDLHKNELKHVKYCQYAFDLKCDSVCVNPYHYERVVSPGIDLSGLTLQSNAPSSMMVKDEYVHDFEGQPSLSTEGHSIQTIQHPPSNRASTETYSTPALLAPSESNATSTANFPNIPVASTSQPASILGGSHSEGLLQIASGPQPGQQQNGFTGQPATYHHNSTTTWTGSRTAPYTPNLPHHQNGHLQHHPPMPPHPGHYWPVHNELAFQPPISNHPAPEYWCSIAYFEMDVQVGETFKVPSSCPIVTVDGYVDPSGGDRFCLGQLSNVHRTEAIERARLHIGKGVQLECKGEGDVWVRCLSDHAVFVQSYYLDREAGRAPGDAVHKIYPSAYIKVFDLRQCHRQMQQQAATAQAAAAAQAAAVAGNIPGPGSVGGIAPAISLSAAAGIGVDDLRRLCILRMSFVKGWGPDYPRQSIKETPCWIEIHLHRALQLLDEVLHTMPIADPQPLD
With B2, the expression_or_secretion entry in data set [1] (glycan gained) is given as “increases”. Moreover, the degradation_or_half_life result in data set [3] (glycan gained, control: untreated (endogenous SMAD4)) is “increases”.

B3: SMAD4: QM (protein)
parent chain: MDNMSITNTPTSNDACLSIVHSLMCHRQGGESETFAKRAIESLVKKLKEKKDELDSLITAITTNGAHPSKCVTIQRTLDGRLQVAGRKGFPHVIYARLWRWPDLHKNELKHVKYCQYAFDLKCDSVCVNPYHYERVVSPGIDLSGLTLQSNAPSSMMVKDEYVHDFEGQPSLSTEGHSIQTIQHPPSNRASTETYSTPALLAPSESNATSTANFPNIPVASTSQPASILGGSHSEGLLQIASGPQPGQQQNGFTGQPATYHHNSTTTWTGSRTAPYTPNLPHHQNGHLQHHPPMPPHPGHYWPVHNELAFQPPISNHPAPEYWCSIAYFEMDVQVGETFKVPSSCPIVTVDGYVDPSGGDRFCLGQLSNVHRTEAIERARLHIGKGVQLECKGEGDVWVRCLSDHAVFVQSYYLDREAGRAPGDAVHKIYPSAYIKVFDLRQCHRQMQQQAATAQAAAAAQAAAVAGNIPGPGSVGGIAPAISLSAAAGIGVDDLRRLCILRMSFVKGWGPDYPRQSIKETPCWIEIHLHRALQLLDEVLHTMPIADPQPLD
As to B3, the “other: polyubiquitination” value in data set [4] is reported as “increases”.

B4: SMAD4: OSMI-1 (protein)
parent chain: MDNMSITNTPTSNDACLSIVHSLMCHRQGGESETFAKRAIESLVKKLKEKKDELDSLITAITTNGAHPSKCVTIQRTLDGRLQVAGRKGFPHVIYARLWRWPDLHKNELKHVKYCQYAFDLKCDSVCVNPYHYERVVSPGIDLSGLTLQSNAPSSMMVKDEYVHDFEGQPSLSTEGHSIQTIQHPPSNRASTETYSTPALLAPSESNATSTANFPNIPVASTSQPASILGGSHSEGLLQIASGPQPGQQQNGFTGQPATYHHNSTTTWTGSRTAPYTPNLPHHQNGHLQHHPPMPPHPGHYWPVHNELAFQPPISNHPAPEYWCSIAYFEMDVQVGETFKVPSSCPIVTVDGYVDPSGGDRFCLGQLSNVHRTEAIERARLHIGKGVQLECKGEGDVWVRCLSDHAVFVQSYYLDREAGRAPGDAVHKIYPSAYIKVFDLRQCHRQMQQQAATAQAAAAAQAAAVAGNIPGPGSVGGIAPAISLSAAAGIGVDDLRRLCILRMSFVKGWGPDYPRQSIKETPCWIEIHLHRALQLLDEVLHTMPIADPQPLD
For B4, in data set [1] (glycan lost), the expression_or_secretion entry is reported as “decreases”.

B5: SMAD4: T63V (protein)
parent chain: MDNMSITNTPTSNDACLSIVHSLMCHRQGGESETFAKRAIESLVKKLKEKKDELDSLITAITTNGAHPSKCVTIQRTLDGRLQVAGRKGFPHVIYARLWRWPDLHKNELKHVKYCQYAFDLKCDSVCVNPYHYERVVSPGIDLSGLTLQSNAPSSMMVKDEYVHDFEGQPSLSTEGHSIQTIQHPPSNRASTETYSTPALLAPSESNATSTANFPNIPVASTSQPASILGGSHSEGLLQIASGPQPGQQQNGFTGQPATYHHNSTTTWTGSRTAPYTPNLPHHQNGHLQHHPPMPPHPGHYWPVHNELAFQPPISNHPAPEYWCSIAYFEMDVQVGETFKVPSSCPIVTVDGYVDPSGGDRFCLGQLSNVHRTEAIERARLHIGKGVQLECKGEGDVWVRCLSDHAVFVQSYYLDREAGRAPGDAVHKIYPSAYIKVFDLRQCHRQMQQQAATAQAAAAAQAAAVAGNIPGPGSVGGIAPAISLSAAAGIGVDDLRRLCILRMSFVKGWGPDYPRQSIKETPCWIEIHLHRALQLLDEVLHTMPIADPQPLD
Turning to B5, the “other: polyubiquitination” value in data set [4] is “increases”. Moreover, the degradation_or_half_life result in data set [3] (glycan lost, control: FLAG-SMAD4 WT) is on record as “decreases”.
